Test results from publication PMC11033958.

Assays:
[1] = target: ACKR3_RlucII (N-terminally FLAG-tagged human ACKR3, residues 2–362, with a C-terminal fusion of Renilla luciferase II) (human) (UniProt P25106)
[2] = target: purified ACKR3:CXCL12_(LRHQ) complex, ACKR3 phosphorylated in vitro by GRK5 (UniProt P25106); assay: pull-down; 1.1 µM purified ACKR3:LRHQ complex phosphorylated by 1.1 µM GRK2 or GRK5 (1 mM ATP, 20 min, room temperature), 2.2 µM purified β-arrestin1 or 2 added for 40 min; captured on M2 anti-FLAG resin at 4°C, washed in 50 mM HEPES pH 7.5, 150 mM NaCl, LMNG/CHS, eluted with 3×FLAG peptide; SDS-PAGE band densities, arrestin as percent of ACKR3
[3] = target: purified ACKR3:CXCL12_(LRHQ) complex, ACKR3 phosphorylated in vitro by GRK2 (UniProt P25106); assay: as above

Chain of CXCL12 (P48061 22-93): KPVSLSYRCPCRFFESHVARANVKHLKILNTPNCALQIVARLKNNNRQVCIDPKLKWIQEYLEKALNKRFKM

CXCL12 removed from the medium (25 nM CXCL12, 16 hours at 37°C) by WT HEK293A cells expressing ACKR3 RlucII, remaining chemokine by ELISA, against cells with empty vector [1] [%]	percent of the receptor complexed with β-arrestin [2] [%]	percent of the receptor complexed with β-arrestin [3] [%]	Substance
64	–	–	CXCL12 (from UniProt P48061 22-93) (ligand)
–	49	–	bovine β-arrestin1 (from UniProt P17870 1-418) (natural protein)
–	73	14	bovine β-arrestin2 (1–393) (from UniProt P32120 1-393) (domain or fragment)
